# Experimental data from patent publication US20120135912A1 (PERSEID THERAPEUTICS, published 2012).
# Where a chain is given by its changes, count along the chain named.
# B1: recombinant human 7D-VCAM-1 (ligand)
# chain: FKIETTPESRYLAQIGDSVSLTCSTTGCESPFFSWRTQIDSPLNGKVTNEGTTSTLTMNPVSFGNEHSYLCTATCESRKLEKGIQVEIYSFPKDPEIHLSGPLEAGKPITVKCSVADVYPFDRLEIDLLKGDHLMKSQEFLEDADRKSLETKSLEVTFTPVIEDIGKVLVCRAKLHIDEMDSVPTVRQAVKELQVYISPKNTVISVNPSTKLQEGGSVTMTCSSEGLPAPEIFWSKKLDNGNLQHLSGNATLTLIAMRMEDSGIYVCEGVNLIGKNRKEVELIVQEKPFTVEISPGPRIAAQIGDSVMLTCSVMGCESPSFSWRTQIDSPLSGKVRSEGTNSTLTLSPVSFENEHSYLCTVTCGHKKLEKGIQVELYSFPRDPEIEMSGGLVNGSSVTVSCKVPSVYPLDRLEIELLKGETILENIEFLEDTDMKSLENKSLEMTFIPTIEDTGKALVCQAKLHIDDMEFEPKQRQSTQTLYVNVAPRDTTVLVSPSSILEEGSSVNMTCLSQGFPAPKILWSRQLPNGELQPLSENATLTLISTKMEDSGVYLCEGINQAGRSRKEVELIIQVTPKDIKLTAFPSESVKEGDTVIISCTCGNVPETWIILKKKAETGDTVLKSIDGAYTIRKAQLKDAGVYECESKNKVGSQLRSLTL
# notes: Bought from R&D Systems; also called immobilized VCAM-1; 7 domain form of VCAM-1
# B2: 2D-VCAM-1 variant Clone 147 (ligand)
# chain: FKIETTPESRYLAQIGDSVSLTCSTTGCESPSFYWRPLLDSPLNGKVTNEGTTSTLTMNPVSFGNEHSYLCTAACESRRLEKGIQVEIYSFPKDPEIHLSGPLEAGKPITVKCSVADVYPFDRLEIDLLKGDHLMKSQEFLEDADRKSLETKSLEVTFTPVIEDIGKVLVCRAKLHIDEMDSVPTVRQAVKELQVYISP
# notes: not shown: His tag
# B3: 2D-VCAM-1 variant Clone 150 (ligand)
# chain: B2 chain with S32L, Y34F, L38Q, S41A, A74R, R79S
# notes: not shown: His tag of the E. coli construct
# B4: R3R5R7 (ligand)
# 2D-VCAM-1 variant polypeptide: MFKIETTPESRYLAQIGDSVSLTCSTTGCESPLFFWRTLIDSPLNGKVTNEGTTSTLTMNPVSFGNEHSYLCTARCESRKLEKGIQVEIYSFPKDPEIHLSGPLEAGKPITVKCSVADVYPFDRLEIDLLKGDHLMKSQEFLEDADRKSLETKSLEVTFTPVIEDIGKVLVCRAKLHIDEMDSVPTVRQAVKELQVYISP
# notes: also called 146R3R5R7
# Columns and labels:
# [1] = target: T1, human VLA4 (integrin alpha4beta1) on the surface of U937 cells (human, UniProt P13612 34-1032; P05556 21-798); assay: static cell adhesion assay: calcein-labelled U937 cells on wells coated with 7D-VCAM-1, buffer with 1 mM MnCl2 (Example 13)
# T1 construct: whole, on cells; Endogenous VLA4 of U937 cells; assay buffer held 1 mM each of CaCl2, MgCl2 and MnCl2; also called cell-surface human VLA4
# T1 sequence (P13612 34-1032, chain 1 of 2): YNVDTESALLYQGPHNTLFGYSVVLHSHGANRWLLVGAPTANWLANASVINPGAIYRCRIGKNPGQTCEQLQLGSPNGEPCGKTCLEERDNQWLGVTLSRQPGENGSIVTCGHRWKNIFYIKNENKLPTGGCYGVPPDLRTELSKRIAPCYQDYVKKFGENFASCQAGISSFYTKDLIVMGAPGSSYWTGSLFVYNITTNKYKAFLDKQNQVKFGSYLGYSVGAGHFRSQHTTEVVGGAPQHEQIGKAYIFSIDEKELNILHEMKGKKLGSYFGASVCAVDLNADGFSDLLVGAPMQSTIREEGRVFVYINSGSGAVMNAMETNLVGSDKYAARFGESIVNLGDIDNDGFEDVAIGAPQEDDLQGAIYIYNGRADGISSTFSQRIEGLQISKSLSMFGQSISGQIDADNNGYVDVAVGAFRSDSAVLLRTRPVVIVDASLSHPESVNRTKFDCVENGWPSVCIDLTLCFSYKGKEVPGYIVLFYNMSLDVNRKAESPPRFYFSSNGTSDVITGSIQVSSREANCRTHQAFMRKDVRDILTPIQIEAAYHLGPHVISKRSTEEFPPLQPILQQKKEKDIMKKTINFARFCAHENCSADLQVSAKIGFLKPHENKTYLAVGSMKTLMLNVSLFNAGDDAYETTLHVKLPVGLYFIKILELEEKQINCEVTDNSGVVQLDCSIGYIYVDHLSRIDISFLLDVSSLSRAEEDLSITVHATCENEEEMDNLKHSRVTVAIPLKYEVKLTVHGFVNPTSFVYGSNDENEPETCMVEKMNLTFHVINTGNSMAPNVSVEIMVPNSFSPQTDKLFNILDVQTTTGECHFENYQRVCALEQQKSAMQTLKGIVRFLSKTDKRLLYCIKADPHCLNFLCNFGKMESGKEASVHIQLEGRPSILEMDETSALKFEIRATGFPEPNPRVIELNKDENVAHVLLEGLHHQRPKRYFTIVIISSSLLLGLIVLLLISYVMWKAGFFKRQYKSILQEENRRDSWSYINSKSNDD
# T1 sequence (P05556 21-798, chain 2 of 2): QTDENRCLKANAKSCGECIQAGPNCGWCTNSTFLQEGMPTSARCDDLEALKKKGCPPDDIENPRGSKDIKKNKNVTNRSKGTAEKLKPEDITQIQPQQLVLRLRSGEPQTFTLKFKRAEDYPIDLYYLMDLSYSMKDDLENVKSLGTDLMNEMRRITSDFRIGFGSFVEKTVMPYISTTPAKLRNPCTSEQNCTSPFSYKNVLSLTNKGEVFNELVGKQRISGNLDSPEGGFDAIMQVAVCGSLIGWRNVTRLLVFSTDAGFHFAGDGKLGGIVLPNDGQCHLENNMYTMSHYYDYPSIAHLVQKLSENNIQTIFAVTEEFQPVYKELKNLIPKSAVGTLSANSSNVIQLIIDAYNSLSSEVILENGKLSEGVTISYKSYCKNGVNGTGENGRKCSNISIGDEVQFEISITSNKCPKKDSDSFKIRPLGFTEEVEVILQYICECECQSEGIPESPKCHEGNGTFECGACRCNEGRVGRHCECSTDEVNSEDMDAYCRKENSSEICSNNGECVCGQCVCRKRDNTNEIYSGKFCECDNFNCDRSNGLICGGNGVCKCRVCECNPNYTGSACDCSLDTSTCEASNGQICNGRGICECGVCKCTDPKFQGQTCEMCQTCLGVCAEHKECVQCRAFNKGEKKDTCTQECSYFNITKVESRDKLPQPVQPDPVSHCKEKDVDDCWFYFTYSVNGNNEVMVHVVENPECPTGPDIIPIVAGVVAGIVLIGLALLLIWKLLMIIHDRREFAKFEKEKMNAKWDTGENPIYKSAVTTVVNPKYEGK
# Method: Prior to assaying, the U937 cells were re-suspended in labeling buffer (RPMI 1640 culture media without phenol red, 10% FBS; Invitrogen), then labeled with 0.5 μg/ml Calcein-AM at 37° C. for 30 minutes on a rotator. Subsequently, the cells were washed three times with labeling buffer then resuspended at 5×10^6 cells/ml in assay buffer (HEPES CaMgMn buffer: 50 mM HEPES, 150 mM NaCl, 1 mM CaCl₂, 1 mM MgCl₂, 1 mM MnCl2 pH 7.4).
# The test compounds (i.e., the 2D-VCAM-1 variant polypeptides) were diluted in dilution buffer and added to VCAM-1-coated plates. […] Plates were spun down at 280×g for 5 minutes with assay buffer decanted by inversion before measuring fluorescence intensity (excitation=485 nm, emission=530 nm) with LJL Analyst HT 96.384 (Molecular Devices, Sunnyvale, Calif.).
# FIG. 5 is a graph showing the cell adhesion index for anti-VLA4-antibody (used as a positive control for maximal inhibition of cell adherence), dilution buffer alone (“no treatment”, a control to show maximal cell adherence to the immobilized VCAM-1), 2D-VCAM-1 valiant Clone 46 (SEQ ID NO:12), Q38L-2D-VCAM-1 polypeptide (SEQ ID NO:10), and human 2D-VCAM-1 (SEQ ID NO:2). The cell adhesion index was calculated as (fluorescence intensity, VCAM-coated well)/(fluorescence intensity, non-CAM-1-coated well). […]
# [2] = target: T2, human VLA4-Fc (alpha4-Fc/beta1-Fc heterodimer) (human); assay: ELISA, VLA4-Fc coated, 1 mM MnCl2; from EC50 values
# T2 construct: Soluble heterodimer from CHO cells, Protein A purified; also called VLA-Fc
# T2 sequence (chain, as listed by the source limits assumed, form in doubt, chain 1 of 2): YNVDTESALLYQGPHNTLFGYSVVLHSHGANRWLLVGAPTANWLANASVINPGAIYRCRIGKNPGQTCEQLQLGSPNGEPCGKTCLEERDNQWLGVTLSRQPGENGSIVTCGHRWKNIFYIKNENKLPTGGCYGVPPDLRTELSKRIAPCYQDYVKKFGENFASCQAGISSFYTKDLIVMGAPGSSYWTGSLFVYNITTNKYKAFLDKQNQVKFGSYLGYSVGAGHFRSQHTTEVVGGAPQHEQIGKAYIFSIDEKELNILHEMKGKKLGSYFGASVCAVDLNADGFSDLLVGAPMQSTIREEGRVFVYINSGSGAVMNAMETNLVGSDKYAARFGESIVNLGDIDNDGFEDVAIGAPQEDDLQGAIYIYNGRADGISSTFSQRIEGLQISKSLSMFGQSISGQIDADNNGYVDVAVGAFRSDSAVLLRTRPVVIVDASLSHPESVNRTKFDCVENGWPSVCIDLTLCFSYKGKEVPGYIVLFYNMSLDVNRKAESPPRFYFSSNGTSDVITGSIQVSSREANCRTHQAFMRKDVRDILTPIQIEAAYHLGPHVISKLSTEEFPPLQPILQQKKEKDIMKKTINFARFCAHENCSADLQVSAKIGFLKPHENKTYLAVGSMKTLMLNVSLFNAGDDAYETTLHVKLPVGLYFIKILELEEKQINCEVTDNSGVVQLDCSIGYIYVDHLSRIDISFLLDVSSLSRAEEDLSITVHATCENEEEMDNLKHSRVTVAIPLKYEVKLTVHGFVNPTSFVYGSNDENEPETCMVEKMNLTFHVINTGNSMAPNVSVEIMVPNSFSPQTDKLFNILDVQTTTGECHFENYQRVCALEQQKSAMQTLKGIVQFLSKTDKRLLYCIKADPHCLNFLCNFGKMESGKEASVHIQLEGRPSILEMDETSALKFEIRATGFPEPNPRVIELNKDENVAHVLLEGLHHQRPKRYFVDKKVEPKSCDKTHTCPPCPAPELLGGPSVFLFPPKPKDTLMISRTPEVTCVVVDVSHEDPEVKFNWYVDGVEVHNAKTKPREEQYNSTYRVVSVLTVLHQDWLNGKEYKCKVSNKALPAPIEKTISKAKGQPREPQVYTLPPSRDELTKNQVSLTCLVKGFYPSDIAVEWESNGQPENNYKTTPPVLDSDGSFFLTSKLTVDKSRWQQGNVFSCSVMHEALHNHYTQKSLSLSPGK
# T2 sequence (chain, as listed by the source limits assumed, form in doubt, chain 2 of 2): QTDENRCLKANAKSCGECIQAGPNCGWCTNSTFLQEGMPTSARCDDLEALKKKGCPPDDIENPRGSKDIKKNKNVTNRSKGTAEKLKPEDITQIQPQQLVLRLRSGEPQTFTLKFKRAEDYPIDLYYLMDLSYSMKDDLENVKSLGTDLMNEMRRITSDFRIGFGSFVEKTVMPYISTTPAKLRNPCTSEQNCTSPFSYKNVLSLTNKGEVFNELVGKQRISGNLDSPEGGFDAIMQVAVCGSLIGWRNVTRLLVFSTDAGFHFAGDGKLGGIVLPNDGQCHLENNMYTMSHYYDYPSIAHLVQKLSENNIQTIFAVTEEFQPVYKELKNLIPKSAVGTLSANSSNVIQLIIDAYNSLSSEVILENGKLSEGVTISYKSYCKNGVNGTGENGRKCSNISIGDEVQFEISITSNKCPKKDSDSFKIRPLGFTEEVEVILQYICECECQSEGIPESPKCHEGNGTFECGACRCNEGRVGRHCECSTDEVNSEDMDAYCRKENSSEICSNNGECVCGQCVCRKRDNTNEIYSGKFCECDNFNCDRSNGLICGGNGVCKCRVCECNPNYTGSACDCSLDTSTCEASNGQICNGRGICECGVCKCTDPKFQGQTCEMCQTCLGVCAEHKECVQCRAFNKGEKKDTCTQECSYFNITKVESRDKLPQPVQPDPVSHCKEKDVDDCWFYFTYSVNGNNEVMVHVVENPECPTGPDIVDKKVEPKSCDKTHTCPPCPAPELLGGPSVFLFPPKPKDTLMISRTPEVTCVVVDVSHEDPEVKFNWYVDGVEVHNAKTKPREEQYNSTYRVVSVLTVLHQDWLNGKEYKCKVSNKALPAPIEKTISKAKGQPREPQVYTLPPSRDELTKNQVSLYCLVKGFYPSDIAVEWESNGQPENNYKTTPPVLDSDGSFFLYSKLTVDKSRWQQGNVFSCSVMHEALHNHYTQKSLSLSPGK
# Method: The relative binding affinities of various 2D-VCAM-1 variants to immobilized VLA4-Fc (α4-β1-Fc) heterodimer, relative to a control protein (e.g., Q38L-2D-VCAM-1 or to human 2D-VCAM-1), were deter using a solid-phase ELISA assay. MAXISORP™ ELISA plates (NUNC) were coated overnight at 4° C. with 50 ul VLA4-Fc heterodimer, 2 ug/ml in TBS-M (TBS (25 mM Tris-HCl pH 7.5, 150 mM NaCl) with 1 mM MnCl2), washed with TBS-T (TBS with 0.05% TWEEN-20), blocked with 200 ul 3% milk in TBS-M for 1 h at room temperature, and washed again with TBS-T. A four-fold dilution series of the purified 2D-VCAM variants to be assayed was made in COSTAR U-bottom plates in TBS-TMC (TBS with 0.05% Tween-20, 1 mM MnCl2, and 1% casein; Sigma) with a starting concentration of 8.2 uM (200 ug/ml). The dilution series was transferred into the ELISA plate which was incubated at room temperature for 2 h and subsequently washed with TBS-T. Bound 2D-VCAM protein was detected by incubation with 0.5 ug/ml of biotinylated anti-human VCAM antibody (R&D Systems, Catalog No. BAF809) in TBS-TMC for 1 h at room temperature followed by a TBS-MT (TBS plus 1 mM MnCl2 and 0.02% TWEEN-20) wash and subsequent incubation with 1:2000 dilution of streptavidin-HRP (BD Biosciences, Catalog No. 554066) in TBS-TMC for 30 min at room temperature. […] Typical development times ranged from […] and development was stopped by addition of 50 ul 2M H₂SO₄ (EM, Catalog No. SX1244-75). […] Fold-improvement in binding was calculated relative to a control protein (e.g., Q38L-2D-VCAM-1 or human 2D-VCAM-1) assayed on the same plate.
# [3] = target: T3, human LPAM-1-Fc (alpha4-Fc/beta7-Fc heterodimer) (human); assay: ELISA, LPAM-1-Fc coated, 1 mM MnCl2; from EC50 values
# T3 construct: Soluble heterodimer from CHO cells, Protein A purified
# T3 sequence (chain, as listed by the source limits assumed, chain 1 of 2): as the sequence (chain, as listed by the source limits assumed, form in doubt, chain 1 of 2) above
# T3 sequence (chain, as listed by the source limits assumed, chain 2 of 2): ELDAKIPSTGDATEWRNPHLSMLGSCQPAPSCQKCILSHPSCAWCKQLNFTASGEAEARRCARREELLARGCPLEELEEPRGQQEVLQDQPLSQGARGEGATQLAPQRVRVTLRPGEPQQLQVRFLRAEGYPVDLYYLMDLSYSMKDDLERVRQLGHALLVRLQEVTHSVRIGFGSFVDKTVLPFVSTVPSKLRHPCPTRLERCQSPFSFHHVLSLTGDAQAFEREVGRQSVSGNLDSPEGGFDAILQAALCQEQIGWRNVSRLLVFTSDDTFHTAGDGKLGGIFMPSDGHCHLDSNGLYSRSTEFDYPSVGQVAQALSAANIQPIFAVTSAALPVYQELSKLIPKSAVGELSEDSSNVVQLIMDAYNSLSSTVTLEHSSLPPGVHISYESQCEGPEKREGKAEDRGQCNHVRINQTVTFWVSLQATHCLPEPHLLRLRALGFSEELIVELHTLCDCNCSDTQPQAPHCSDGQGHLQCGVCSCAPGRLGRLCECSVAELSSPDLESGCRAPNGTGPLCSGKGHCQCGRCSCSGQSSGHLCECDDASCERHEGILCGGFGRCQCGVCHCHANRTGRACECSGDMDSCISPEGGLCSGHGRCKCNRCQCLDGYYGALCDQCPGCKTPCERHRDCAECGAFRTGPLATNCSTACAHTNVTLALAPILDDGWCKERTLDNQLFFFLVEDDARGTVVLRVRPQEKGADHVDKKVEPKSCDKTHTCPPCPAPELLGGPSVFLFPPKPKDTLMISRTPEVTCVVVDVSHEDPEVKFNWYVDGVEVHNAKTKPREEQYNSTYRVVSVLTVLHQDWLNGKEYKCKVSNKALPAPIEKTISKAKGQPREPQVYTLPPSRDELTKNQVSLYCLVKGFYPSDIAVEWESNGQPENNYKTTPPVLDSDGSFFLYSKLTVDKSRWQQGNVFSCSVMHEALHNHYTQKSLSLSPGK
# Method: The relative binding affinities of various 2D-VCAM variant proteins to immobilized LPAM-1-Fc (α4-Fc/β-7-Fc) heterodimer, relative to a control protein (e.g., Q38L-2D-VCAM-1 or human 2D-VCAM-1), were determined using a solid-phase ELISA assay. MAXISORP™ ELISA plates (NUNC) were coated overnight at 4° C. with 50 ul LPAM-1-Fc heterodimer (2 ug/ml in TBS-M, TBS (25 mM TRIS-HCl pH 7.5, 150 mM NaCl with 1 mM MnCl2), washed with TBS-T (TBS with 0.05% Tween-20), blocked with 200 ul 3% milk in TBS-M for 1 hr at room temperature, and washed again with TBS-T. A four-fold dilution series of the purified 2D-VCAM-1 variants to he assayed was made in COSTAR U-bottom plates in TBS-TMC (TBS with 0.05% Tween-20, 1 mM MnCl2 and 1% casein; Sigma) with a starting concentration of 8.2 uM (200 ug/ml). The dilution, series were transferred into the ELISA plate which was incubated at room temperature for 2 h and subsequently washed with TBS-T. Bound 2D-VCAM-1 protein was detected by incubation with 0.5 ug/ml of biotinylated anti-human VCAM antibody (R&D Systems, Catalog No. BAF809) in TBS-TMC for 1 h at room temperature followed by a TBS-T wash and subsequent incubation with 1:2000 dilution of streptavidin-HRP (BD Biosciences, Catalog No. 554066) in TBS-TMC for 30 min at room temperature. […] Typical development times ranged from 5-15 min and development was stopped by addition of 50 ul 2M H₂SO₄ (EM, Catalog No. SX1244-75). […] Fold-improvement in binding was calculated relative to a control protein (Q38L-2D-VCAM-1) assayed on the same plate.
# [4] = target: T2, human VLA4-Fc (alpha4-Fc/beta1-Fc …); assay: SPR (BIACORE), VLA4-Fc captured by anti-human IgG, 1 mM MnCl2, 1:1 Langmuir
# Method: (§1) The kinetic 2D-VCAM-1 assay measures binding kinetics of a dimeric ligand (e.g., VLA-Fc fusion protein or LPAM-1-Fc fusion protein) coated to sensor chips and monomeric analyte (e.g., 2D-VCAM-1 variant polypeptides) in the mobile phase. Goat anti-human IgG antibody (Jackson ImmunoResearch, Catalog No. 105-005-098) was immobilized on CM-5 sensor chips (GE Healthcare, Catalog No. BR-1000-14) according to the manufacturer's protocol. Antibody was diluted to 30 μg/ml in immobilization buffer (10 mM sodium acetate, pH 5.0 (GE Healthcare, Catalog No. BR-1003-51)). […] Un-reacted sites were quenched with 35 μl of 1 M ethanolamine-HCl pH 8.5 (GE Healthcare, Catalog No. BR-1000-50). This procedure typically yielded 15,000 response units (RU) of coupled antibody. VLA4-Fc or LPAM-1-Fc, prepared as described in Examples 3 and 4, respectively, were bound to antibody-coated sensor chips by injection of 20 μl of ligand solution (20 μg/ml protein in HBS-P-Mn buffer at a flow rate of 10 μl/min). Ligand capture levels were typically 200-300 RU. 2D-VCAM-1 variant polypeptides were diluted in HBS-P-Mn and flowed over ligand-coated sensor chips for 2 min at 30 μl/min, followed by 5 min incubation with in HBS-P-Mn containing no protein at the same flow rate. For 2D-VCAM-1 variant polypeptides having very slow dissociation rates from VLA4-Fc or LPAM-1-Fc, kinetic assays were also conducted using longer dissociation times (e.g., 20 min). Rmax signal levels for 2D-VCAM-1 variant polypeptides ranged from approximately 5-25 RU. Regeneration between cycles was performed by 200 sec incubation with 10 mM glycine buffer (pH 1.7) at 50 μl/min. New chips were subjected to 4-5 cycles of capture/binding/regeneration prior to use in actual experiments. Data from a reference cell containing goat anti-human IgG capture antibody alone was subtracted from data obtained from flow cells containing captured VLA4-Fc or LPAM-1-Fc. Typically, 8 dilutions of 2D-VCAM-1 variant polypeptides ranging from 150 nM to 0.069 nM were analyzed against a blank reference (HBS-P-Mn buffer alone).
# [5] = target: T3, human LPAM-1-Fc (alpha4-Fc/beta7-Fc …); assay: SPR (BIACORE), LPAM-1-Fc captured by anti-human IgG, 1 mM MnCl2, 1:1 Langmuir
# Method: as §1
# [6] = target: T3, human LPAM-1-Fc (alpha4-Fc/beta7-Fc …); assay: SPR (BIACORE) as in Example 12, polypeptide purified from E. coli as analyte on captured LPAM-1-Fc; KD drawn as bars (Example 20)
# [7] = target: T2, human VLA4-Fc (alpha4-Fc/beta1-Fc …); assay: SPR (BIACORE) as in Example 12, polypeptide purified from E. coli as analyte on captured VLA4-Fc; the black bar is broken and the value is written over it (Example 20)
binder,measurement,setting,value
B1,binding result,[1],binds
B2,fold-improvement in binding relative to Q38L-2D-VCAM-1,[2],11 fold
same,fold-improvement in binding relative to human 2D-VCAM-1,[2],88 fold
same,fold improvement in binding relative to Q38L-2D-VCAM-1,[3],23 fold
B3,fold-improvement in binding relative to Q38L-2D-VCAM-1,[2],4 fold
same,fold-improvement in binding relative to human 2D-VCAM-1,[2],32 fold
same,fold improvement in binding relative to Q38L-2D-VCAM-1,[3],5 fold
same,Kd,[4],0.417 nM
same,binding affinity for VLA4-Fc relative to human 2D-VCAM-1,[4],36 fold
same,Kd,[5],31.2 nM
same,binding affinity for LPAM-1-Fc relative to human 2D-VCAM-1,[5],8 fold
B4,binding result,[6],binds
same,Kd,[7],0.25 nM
